Measurements: PMC10544979

Columns and labels:
[1] = target: mouse TLR4 (mTLR4) on HEK-Blue-mTLR4 reporter cells (mouse) (UniProt Q9QUK6); details: for log (EC50) of NF-kB-driven SEAP secretion by HEK-Blue-mTLR4 reporter cells, 48 h, dose-response up to 2540 nM: scale: log
[2] = target: human TLR4 (hTLR4) on HEK-Blue-hTLR4 reporter cells (human) (UniProt O00206)
Sequence of UniProt O00206 (O00206 24-839): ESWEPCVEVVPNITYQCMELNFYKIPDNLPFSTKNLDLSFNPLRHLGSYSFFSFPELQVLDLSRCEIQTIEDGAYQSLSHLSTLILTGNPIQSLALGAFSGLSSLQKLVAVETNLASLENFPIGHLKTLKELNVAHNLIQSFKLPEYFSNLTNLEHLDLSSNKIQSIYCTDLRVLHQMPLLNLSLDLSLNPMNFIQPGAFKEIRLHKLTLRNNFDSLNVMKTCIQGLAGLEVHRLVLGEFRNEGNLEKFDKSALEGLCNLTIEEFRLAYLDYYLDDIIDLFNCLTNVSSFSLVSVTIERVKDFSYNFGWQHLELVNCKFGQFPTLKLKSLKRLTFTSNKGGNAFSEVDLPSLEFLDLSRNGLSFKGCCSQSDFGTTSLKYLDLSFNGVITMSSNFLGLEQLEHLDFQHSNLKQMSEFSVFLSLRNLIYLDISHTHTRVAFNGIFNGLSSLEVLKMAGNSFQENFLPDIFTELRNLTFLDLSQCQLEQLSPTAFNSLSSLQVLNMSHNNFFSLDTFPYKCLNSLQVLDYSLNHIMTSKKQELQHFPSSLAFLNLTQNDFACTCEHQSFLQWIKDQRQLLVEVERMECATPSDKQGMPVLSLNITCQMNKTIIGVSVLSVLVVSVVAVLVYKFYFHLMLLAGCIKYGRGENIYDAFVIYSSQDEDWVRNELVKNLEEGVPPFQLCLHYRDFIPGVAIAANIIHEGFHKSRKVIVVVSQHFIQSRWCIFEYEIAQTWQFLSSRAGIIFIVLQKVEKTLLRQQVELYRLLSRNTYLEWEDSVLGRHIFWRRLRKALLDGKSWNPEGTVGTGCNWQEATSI

Sequence of UniProt Q9QUK6 (Q9QUK6 26-835): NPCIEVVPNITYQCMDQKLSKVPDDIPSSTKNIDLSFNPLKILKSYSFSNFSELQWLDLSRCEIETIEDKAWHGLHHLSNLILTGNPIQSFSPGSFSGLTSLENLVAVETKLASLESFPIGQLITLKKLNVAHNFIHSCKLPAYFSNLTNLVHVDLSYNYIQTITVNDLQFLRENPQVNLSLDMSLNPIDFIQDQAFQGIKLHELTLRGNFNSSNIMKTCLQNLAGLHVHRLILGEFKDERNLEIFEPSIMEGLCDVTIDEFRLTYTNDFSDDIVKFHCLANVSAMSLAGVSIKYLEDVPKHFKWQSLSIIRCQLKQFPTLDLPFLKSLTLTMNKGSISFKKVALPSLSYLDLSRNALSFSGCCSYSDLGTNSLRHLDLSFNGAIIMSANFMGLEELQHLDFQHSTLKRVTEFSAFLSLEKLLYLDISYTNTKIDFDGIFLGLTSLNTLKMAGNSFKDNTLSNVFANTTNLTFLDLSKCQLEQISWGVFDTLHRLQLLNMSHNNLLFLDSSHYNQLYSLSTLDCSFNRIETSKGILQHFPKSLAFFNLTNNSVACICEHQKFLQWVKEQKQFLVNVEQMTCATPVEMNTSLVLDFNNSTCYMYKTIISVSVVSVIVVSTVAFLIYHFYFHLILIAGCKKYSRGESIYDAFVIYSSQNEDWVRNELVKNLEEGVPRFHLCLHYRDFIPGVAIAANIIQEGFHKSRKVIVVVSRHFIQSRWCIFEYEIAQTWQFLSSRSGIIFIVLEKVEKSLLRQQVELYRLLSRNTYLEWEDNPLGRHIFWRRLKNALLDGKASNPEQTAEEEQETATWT

| Substance | maximum activation of HEK-Blue-mTLR4 reporter cells (SEAP), dose-response up to 2540 nM, 48 h, LPS plateau = 100% [1] | log (EC50) of NF-kB-driven SEAP secretion by HEK-Blue-mTLR4 reporter cells, 48 h, dose-response up to 2540 nM [1] | activation of HEK-Blue-hTLR4 reporter cells (SEAP), dose-response up to 2,540 nM, 48 h, LPS = 100% [2] |
| --- | --- | --- | --- |
| recombinant surface immunogenic protein (rSIP) from Streptococcus agalactiae (natural protein) | 80 % of LPS | -1 | 90 % of LPS |
| Fissurella latimarginata hemocyanin (FLH) (natural protein) | 80 % of LPS | 0.1 | 25 % of LPS |
